Measured values reported in PMC12236258.

Molecular target: SpyCatcher003-A49C labelled with Alexa 555 maleimide
Assay: FRET or BRET; inline mixing cell, SpyTag003-sfGFP (donor) and SpyCatcher003-AF555 (acceptor) each at 10 uM, equimolar, delays 0.02-10 s, emission at 515 nm, double exponential fit; observed rates at one concentration

Substance: SpyTag003-sfGFP
- fast rate of the double exponential FRET decay (observed, 10 uM each): 143 s⁻¹
- percent reduction of the donor fluorescence by FRET (20 ms to 10 s after mixing): > 50%
- slow rate of the double exponential FRET decay (observed, 10 uM each): 7 s⁻¹
